The record followed here is patent US20180043014A1.

Test [1] concerns the target GPNMB (CG56972) on the surface of human tumor cell lines (human) (UniProt Q14956). The test can be described thus: flow cytometry, A375 cells, untreated, 24 h; background control.
The target is the same in test [2]. The test is described as follows: flow cytometry, A375 cells, untreated, 12 h; background control.
Test [3] has the same target. The test is described as follows: flow cytometry, WM2664 cells, untreated; background control. (In general: In flow cytometry, cells or beads pass a laser one at a time.)
The target is the same in test [4]. The test can be described thus: flow cytometry, SF539 (printed SF549) cells, untreated, 48 h; background control.
For test [5] the target is unchanged. The test is described as follows: flow cytometry on intact, non-permeabilized A375 melanoma cells, Treatment: None; primary antibody 10 ug/mL per methods, geometric mean fluorescence intensity.
For test [6] the target is unchanged. The test can be described thus: flow cytometry, SKMEL2 cells, untreated; background control.
For test [7] the target is unchanged. The test is described as follows: flow cytometry, SF539 (printed SF549) cells, untreated, 24 h; background control.
For test [8] the target is unchanged. The test is described as follows: flow cytometry, A375 cells, untreated, 48 h; background control.
The target is the same in test [9]. The test can be described thus: flow cytometry, SF539 (printed SF549) cells, untreated, 12 h; background control.

Chain of GPNMB (CG56972) on the surface of human tumor cell lines (human) (Q14956 23-492): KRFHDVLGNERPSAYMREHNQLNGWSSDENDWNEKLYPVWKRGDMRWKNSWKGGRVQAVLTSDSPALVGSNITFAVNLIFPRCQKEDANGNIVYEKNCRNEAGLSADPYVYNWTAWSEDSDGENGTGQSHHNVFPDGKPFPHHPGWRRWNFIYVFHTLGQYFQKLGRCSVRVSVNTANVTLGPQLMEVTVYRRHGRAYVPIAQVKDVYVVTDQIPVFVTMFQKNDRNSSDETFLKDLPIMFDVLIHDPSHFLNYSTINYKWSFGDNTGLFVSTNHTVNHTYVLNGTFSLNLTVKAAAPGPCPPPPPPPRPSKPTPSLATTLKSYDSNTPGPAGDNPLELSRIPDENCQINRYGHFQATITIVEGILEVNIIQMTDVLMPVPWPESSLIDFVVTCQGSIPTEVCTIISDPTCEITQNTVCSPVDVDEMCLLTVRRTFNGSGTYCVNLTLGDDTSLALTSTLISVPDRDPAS

Take “unrelated human IgG2 isotype control monoclonal antibody”: the GeoMean in test [1] worked out at 7.5; in test [2] it was 7.4; in test [3], 7.3; in [4], 9.5; in [5], 8.4; in test [6], 6.9. The GeoMean in [7] stood at 8.7; in test [8], 7.8; in test [9], 8.2.
